# Experimental data taken from patent US20250043302A1, “MUTATED HYDROXYPHENYLPYRUVATE DIOXYGENASE POLYPEPTIDE, AND CODING GENE AND USE THEREOF” (BEIJING DABEINONG BIOTECHNOLOGY CO., LTD., priority 2021, published 2025).
# B1: AtHPPDm-F383W-02: nucleotide sequence encoding Arabidopsis thaliana HPPD with F383W; vector DBN11732 (nucleic acid)
# DNA: ATGGGACATCAGAATGCTGCTGTATCAGAAAATCAAAATCATGATGATGGAGCCGCCTCCTCACCAGGGTTTAAGTTGGTTGGGTTCTCCAAGTTTGTACGGAAGAACCCAAAATCCGACAAGTTCAAGGTTAAACGCTTCCACCACATTGAATTCTGGTGCGGCGACGCCACCAATGTTGCTCGGCGTTTTTCATGGGGTTTAGGCATGAGATTCTCAGCAAAGAGTGACCTGAGCACCGGCAACATGGTTCATGCTAGCTATCTCTTAACATCTGGAGATTTGAGGTTTCTTTTCACGGCGCCGTACTCACCATCACTCTCCGCCGGCGAGATCAAACCCACCACGACTGCAAGCATACCTTCATTTGATCATGGTAGTTGCAGATCCTTCTTCTCGTCGCACGGCCTAGGGGTGCGCGCGGTCGCCATCGAAGTTGAAGATGCAGAATCAGCGTTTAGTATCAGCGTGGCAAATGGAGCTATTCCTTCCTCCCCTCCAATTGTCCTCAATGAGGCTGTAACTATTGCCGAGGTGAAGTTGTATGGAGATGTTGTGCTGAGATATGTTTCTTACAAGGCAGAGGACACTGAGAAATCTGAATTTTTGCCTGGTTTTGAAAGGGTCGAGGATGCTTCAAGTTTTCCTCTTGATTACGGCATACGACGGTTGGATCACGCGGTTGGAAATGTACCAGAACTTGGGCCGGCGCTCACTTATGTGGCTGGTTTCACTGGATTCCATCAATTTGCTGAGTTCACAGCTGATGATGTTGGGACTGCTGAAAGTGGGTTGAACTCTGCAGTCCTCGCCTCTAATGATGAAATGGTGCTCCTCCCGATCAACGAGCCTGTGCATGGCACCAAAAGGAAATCACAAATACAGACATATCTTGAGCACAATGAAGGTGCAGGGCTTCAACATCTTGCACTGATGTCTGAAGACATTTTCCGTACGCTGAGAGAGATGAGGAAGAGAAGTAGTATTGGTGGATTTGACTTCATGCCTTCTCCCCCACCAACTTACTACCAGAACTTGAAGAAGAGGGTTGGTGATGTGCTATCTGATGACCAGATCAAGGAGTGTGAAGAATTGGGCATTCTTGTTGATCGGGACGACCAAGGAACATTACTGCAGATATTTACAAAACCACTTGGTGACCGCCCCACTATTTGGATTGAGATCATACAAAGAGTCGGCTGCATGATGAAGGATGAGGAAGGAAAAGCATATCAATCTGGTGGTTGTGGCGGCTTTGGGAAAGGAAACTTCTCTGAGCTGTTCAAATCCATCGAGGAGTATGAGAAGACCTTGGAGGCCAAGCAGCTCGTGGGTTGA
# modifications: AtHPPDm-F383W-02 Nucleotide Sequence
# notes: vector DBN11732
# B2: MsHPPD-02: nucleotide sequence encoding wild-type Medicago sativa HPPD; vector DBN11734 (nucleic acid)
# DNA: ATGGCTATTGAAACCGAAACACAAACTCAGACTGGATTTAAACTGGTAGGGTTCAAGAATTTCGTTAGGGCTAATCCCAAGTCTGATCGTTTTAAGGTCAAGAGGTTCCACCACGTGGAGTTCTGGTGCACTGATGCAACCAACACGGCGCGGCGTTTTTCACATGGTCTTGGAATGCCTATTGTTGCAAAATCCGACCTCTCCACGGGGAACCAAACACACGCCTCTTACCTGCTACGGAGTGGTGACTTGAACTTCCTCTTCAGCGCCGCCTACTCACCCTCCATATCGTTGTCTTCACCATCCTCGACCGCAGCAATTCCTACATTTTCTGCGAGCAACTGCTTCTCTTTCTCTGCCAGTCATGGCCTCGCCGTCAGAGCAGTGGCCGTTGAAGTAGAGGATGCTGAACTTGCTTTTACAACTTCAGTGAATAATGGAGCAATACCGAGCAGTCCGCCGGTCATACTTGAGAATCATGTGAAGCTAGCGGAGGTGAGGCTTTATGGGGACGTCGTTTTAAGATATGTCAGCTACAATGATCCAAACCCCAATCAAAATCCAAATTTGTTGTTCCTTCCTGGCTTCGAGCGTGTTAGCGATGAATCTTCAAACTCTTCACTGGATTTTGGAATCAGACGGTTGGATCATGCTGTTGGAAATGTTCCTGAACTCTCGAGCGCTGTGAAATATGTGAAGGACTTCACCGGTTTTCATGAATTTGCTGAGTTTACTGCAGAAGATGTGGGTACATCAGAGAGTGGCTTGAATTCCGTGGTGCTCGCCAACAACGAGGAGACTGTACTCTTACCAATGAATGAGCCAGTCTATGGCACCAAGCGTAAATCTCAAATTGAGACATATTTGGAGCACAATGAAGGAGCTGGACTTCAGCATCTCGCGCTGAAGAGTGAGGACATCTTCCGCACCCTACGGGAGATGAGGAAAAGAAGTGGTGTTGGTGGGTTTGAATTCATGCCATCACCTCCTGTCACCTACTACAGGAACCTGAAGAACAGAGTTGGTGATGTACTTTCGGACGAGCAGATAAAGGAATGTGAAGAGTTGGGGATTTTGGTTGATAGAGATGATCAAGGAACACTCCTGCAGATTTTTACAAAACCAATTGGCGACCGCCCCACTATCTTCATAGAGATCATCCAGAGGGTGGGGTGCATGCTCAAAGACGAGGAAGGGAAGGAGTACCAGAAGGGCGGCTGTGGTGGTTTTGGGAAAGGAAACTTTTCTGAGTTATTCAAATCAATTGAAGAGTATGAGAAGACGCTTGAAACGCGTCGCACTGCTTGA
# modifications: MsHPPD-02 Nucleotide Sequence
# notes: vector DBN11734
# Tests used:
# Assay type in all cases: in vivo
# [1] = tested on: Arabidopsis thaliana T1 plants; assay: Isoxaflutole tolerance of transgenic Arabidopsis thaliana T1 plants (spray, bleached leaf area grade, damage score); design: Scores (pesticide damage): scale not given here; conditions: spray, Arabidopsis thaliana T1 plants; for Classification and statistics of the grade of pesticide damage: Grade 0 (number of plants) / Classification and statistics of the grade of pesticide damage: Grade 1 (number of plants) / Classification and statistics of the grade of pesticide damage: Grade 2 (number of plants) / Classification and statistics of the grade of pesticide damage: Grade 3 (number of plants): 16 plants
# Procedure, shortened: (§1)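 Damage was assessed by bleaching grade (0 none; 1 <50%; 2 >50%; 3 100% of leaf area) one week after spraying. Sprays on 18-day-old T1 and wild-type plants used field-rate multiples: topramezone 25–200, isoxaflutole 35–280, mesotrione 52.5–420 g ai/ha.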
# [2] = tested on: Arabidopsis thaliana T1 plants; assay: Mesotrione tolerance of transgenic Arabidopsis thaliana T1 plants (spray, bleached leaf area grade, damage score); design: Scores: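 damage score 0-100 computed as Σ(N×S)/(T×M)×100 over grades 0-3 with higher meaning more damage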; conditions: Arabidopsis thaliana T1 plants; for Grade 0 (classification and statistics of the grade of pesticide damage; number of plants) / Grade 1 (classification and statistics of the grade of pesticide damage; number of plants) / Grade 2 (classification and statistics of the grade of pesticide damage; number of plants) / Grade 3 (classification and statistics of the grade of pesticide damage; number of plants): 16 plants
# Procedure, shortened: as §1
# [3] = tested on: Arabidopsis thaliana T1 plants; assay: Topramezone tolerance of transgenic Arabidopsis thaliana T1 plants (spray, bleached leaf area grade, damage score); conditions: 7 DAT, Table 4; for Classification and statistics of the grade of pesticide damage: Grade 0 / Classification and statistics of the grade of pesticide damage: Grade 1 / Classification and statistics of the grade of pesticide damage: Grade 2 / Classification and statistics of the grade of pesticide damage: Grade 3: number of plants; for Scores: pesticide damage score 0-100
# Procedure, shortened: as §1
# [4] = isoxaflutole 35 g ai/ha (0.5x field concentration)
# [5] = isoxaflutole 70 g ai/ha (1x field concentration)
Molecule,"Resistance evaluation [1, 4]","Scores (pesticide damage) [1, 4]","Classification and statistics of the grade of pesticide damage: Grade 0 (number of plants) [1, 4]","Classification and statistics of the grade of pesticide damage: Grade 1 (number of plants) [1, 4]","Classification and statistics of the grade of pesticide damage: Grade 2 (number of plants) [1, 4]","Classification and statistics of the grade of pesticide damage: Grade 3 (number of plants) [1, 4]","Resistance evaluation [1, 5]","Scores (pesticide damage) [1, 5]","Classification and statistics of the grade of pesticide damage: Grade 0 (number of plants) [1, 5]","Classification and statistics of the grade of pesticide damage: Grade 1 (number of plants) [1, 5]","Classification and statistics of the grade of pesticide damage: Grade 2 (number of plants) [1, 5]","Classification and statistics of the grade of pesticide damage: Grade 3 (number of plants) [1, 5]",Resistance evaluation ([2]; mesotrione 52.5 g ai/ha),Scores ([2]; mesotrione 52.5 g ai/ha),Grade 0 (classification and statistics of the grade of pesticide damage; number of plants) ([2]; mesotrione 52.5 g ai/ha),Grade 1 (classification and statistics of the grade of pesticide damage; number of plants) ([2]; mesotrione 52.5 g ai/ha),Grade 2 (classification and statistics of the grade of pesticide damage; number of plants) ([2]; mesotrione 52.5 g ai/ha),Grade 3 (classification and statistics of the grade of pesticide damage; number of plants) ([2]; mesotrione 52.5 g ai/ha),Resistance evaluation ([2]; mesotrione 105 g ai/ha),Scores ([2]; mesotrione 105 g ai/ha),other results
B1,Non-resistant,77,0,2,7,7,Non-resistant,100,0,0,0,16,Non-resistant,100,0,0,0,16,Non-resistant,100,Grade 0 (classification and statistics of the grade of pesticide damage; number of plants) ([2]; mesotrione 105 g ai/ha): 0; Grade 1 (classification and statistics of the grade of pesticide damage; number of plants) ([2]; mesotrione 105 g ai/ha): 0; Grade 2 (classification and statistics of the grade of pesticide damage; number of plants) ([2]; mesotrione 105 g ai/ha): 0; Grade 3 (classification and statistics of the grade of pesticide damage; number of plants) ([2]; mesotrione 105 g ai/ha): 16; Classification and statistics of the grade of pesticide damage: Grade 0 ([3]; topramezone 25 g ai/ha (1×)): 0; Classification and statistics of the grade of pesticide damage: Grade 1 ([3]; topramezone 25 g ai/ha (1×)): 2; Classification and statistics of the grade of pesticide damage: Grade 2 ([3]; topramezone 25 g ai/ha (1×)): 5; Classification and statistics of the grade of pesticide damage: Grade 3 ([3]; topramezone 25 g ai/ha (1×)): 9; Classification and statistics of the grade of pesticide damage: Grade 0 ([3]; topramezone 100 g ai/ha (4×)): 0; Classification and statistics of the grade of pesticide damage: Grade 1 ([3]; topramezone 100 g ai/ha (4×)): 0; Classification and statistics of the grade of pesticide damage: Grade 2 ([3]; topramezone 100 g ai/ha (4×)): 2; Classification and statistics of the grade of pesticide damage: Grade 3 ([3]; topramezone 100 g ai/ha (4×)): 14; Scores ([3]; topramezone 25 g ai/ha (1×)): 81; Scores ([3]; topramezone 100 g ai/ha (4×)): 96; Resistance evaluation ([3]; topramezone 25 g ai/ha (1×)): non-resistant (non-resistant plants (scores 68-100)); Resistance evaluation ([3]; topramezone 100 g ai/ha (4×)): non-resistant (non-resistant plants (scores 68-100))
B2,Non-resistant,100,0,0,0,16,Non-resistant,100,0,0,0,16,Non-resistant,100,0,0,0,16,Non-resistant,100,Grade 0 (classification and statistics of the grade of pesticide damage; number of plants) ([2]; mesotrione 105 g ai/ha): 0; Grade 1 (classification and statistics of the grade of pesticide damage; number of plants) ([2]; mesotrione 105 g ai/ha): 0; Grade 2 (classification and statistics of the grade of pesticide damage; number of plants) ([2]; mesotrione 105 g ai/ha): 0; Grade 3 (classification and statistics of the grade of pesticide damage; number of plants) ([2]; mesotrione 105 g ai/ha): 16; Classification and statistics of the grade of pesticide damage: Grade 0 ([3]; topramezone 25 g ai/ha (1×)): 0; Classification and statistics of the grade of pesticide damage: Grade 1 ([3]; topramezone 25 g ai/ha (1×)): 0; Classification and statistics of the grade of pesticide damage: Grade 2 ([3]; topramezone 25 g ai/ha (1×)): 0; Classification and statistics of the grade of pesticide damage: Grade 3 ([3]; topramezone 25 g ai/ha (1×)): 16; Classification and statistics of the grade of pesticide damage: Grade 0 ([3]; topramezone 100 g ai/ha (4×)): 0; Classification and statistics of the grade of pesticide damage: Grade 1 ([3]; topramezone 100 g ai/ha (4×)): 0; Classification and statistics of the grade of pesticide damage: Grade 2 ([3]; topramezone 100 g ai/ha (4×)): 0; Classification and statistics of the grade of pesticide damage: Grade 3 ([3]; topramezone 100 g ai/ha (4×)): 16; Scores ([3]; topramezone 25 g ai/ha (1×)): 100; Scores ([3]; topramezone 100 g ai/ha (4×)): 100; Resistance evaluation ([3]; topramezone 25 g ai/ha (1×)): non-resistant (non-resistant plants (scores 68-100)); Resistance evaluation ([3]; topramezone 100 g ai/ha (4×)): non-resistant (non-resistant plants (scores 68-100))
